Test system: K4 kissing-loop RNA reporter
Test: apparent KD of K4 kissing-loop reporter; higher = weaker reporter binding
Conditions: Eterna round: R107
Method: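 RNA-MaP round R107: designed RNA switches with theophylline, tryptophan, arginine or FMN aptamers are transcribed on-chip within common flanks. They are titrated with a labelled K4 kissing-loop RNA reporter in RNA-MaP buffer (100 mM Tris pH 7.5, 80 mM KCl, 4 mM MgCl2), without ligand or with the indicated ligand. Median apparent KD per design.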

[1] = input ligand: theophylline 20 uM
[2] = input ligand: tryptophan 2.4 mM
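Note: bound reporter read as fluorescence of individual clusters on recovered sequencing chips by microscopy, with normalized cluster intensities fitted with a binding model.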

Sequence | apparent KD of K4 kissing-loop reporter (input ligand: FMN 200 uM) | apparent KD of K4 kissing-loop reporter (input ligand: arginine 13.2 mM) | apparent KD of K4 kissing-loop reporter (input ligand: none) | apparent KD of K4 kissing-loop reporter [1] | apparent KD of K4 kissing-loop reporter [2]
GGCCGCAAGGCGAGCGCUCCCACUCCGGAAGGAGCGCCCGGAAGGGCAGGUAGGUCGCCGGAGUGAUGUUCCGGUGGAGGGCUCG [#2 Exclusion - Arginine A Attempt #18 (Inspired by Omei)] | 435 nM | 319 nM | 417 nM | 772 nM | 469 nM
AGACUACCACACUGUCAAUAGACAGUGGACUAGGAUAUGCUGAUAAGCAGAAGGAGUGAUGUUCCUCGGUAGUCAAUAAAAUAAU [FmnAX 13 G28+C67] | 323 nM | 318 nM | 286 nM | 489 nM | 273 nM
AGGAGCGUGCGAUGCAAAUCGCACGCUCCUCGAGGACCGGUACGGCCGCCACUCGCUCGCGCCGAGUGAUGUUCGGCCGGCGAAC [#2 Same State - Tryptophan A Attempt #10 (HarryS)] | 266 nM | 236 nM | 265 nM | 289 nM | 452 nM
AAGUCAUAUAGAAGGAGCGUGUUUUUUAAUUUAUUUUCAUGAUCGAGUGAUGUUCGAUAUACACAGGUAGGUCGCUGUAUAAUAA [hbob_SS_Arginine_B_2t141] | 126 nM | 145 nM | 127 nM | 179 nM | 112 nM
GGUUUAUAGGAGGAUACCAGUACGGAUAAAGUACGUUAAUAGUAGAGUGAUGUUCUAAAGUACCCUUGGCAGCUUAGAGUGAGUG [ExTheophylB.M] | 98.6 nM | 164 nM | 136 nM | 182 nM | 94.3 nM
GUAUAUCGAGUGAUGUUCGAAUGCUCCGAAGGAGCGCGGAUAAUCGCAGGUAGGUCGCGGAGCAGUUGCUGAGGAAGCUCAGUAU [Arg A SS t11] | 162 nM | 401 nM | 211 nM | 211 nM | 147 nM
CCGGCCCAGCCGGAUACCAGUGCGCCGCAGGGAACGGCGGGCCCAGAGUGAUGUUCGGGACACCCUUGGCAGCCGCCUGGGUCCC [#2 Same State - Theophylline B Attempt #30 (HarryS)] | 618 nM | 364 nM | 669 nM | 355 nM | 435 nM
CUGUCAUGGGAUGGGCCAGUGAUGUUGGGCCGAGGACCGGUACGGCCGCCACUCGUAGCACAGUGCGCGCUAGCAUUGUACGUCA [theeternabot_exclusion_KL_Trp_A_35] | 1260 nM | 629 nM | 977 nM | 808 nM | 456 nM
UUAUAUAUAUCAGAUACCAGUAUAAUGGAAACAAAUUAUGUUAUGAGUGAUGUUCAUGUAUGCCCUUGGCAGCUGGUAUGGGUUU [KL-XTheo-B20] | 356 nM | 322 nM | 362 nM | 439 nM | 311 nM
AGAUUCGACACGGCCGCCACUUCCAGUGGCUGGUGUCAUGGUGCGCGUGAGUGAUGUUUAUGUGGAAGGACCGGGUGUUGAGUCU [KL-XTryp-B1 #analogue] | 938 nM | 554 nM | 917 nM | 606 nM | 1190 nM
AAGCAGUCAGGAUCGAAGAUCCUGCAAAACCGAGGACCGGUACGGCCGCCACUCGGAGUGAUGUUCCGAAGACUGCAAAAUAAAA [#SwitchBubble 6] | 191 nM | 152 nM | 213 nM | 150 nM | 64.5 nM
AAAGUGUCAGCACGAGUGAUGUUCGACGAUACCAGCCUCGAUAGAGGCCCUUGGCAGCGUAAAAGUCAAGGGCUGGCACAUAAAA [#SwitchBubble 5 #K4Early] | 789 nM | 751 nM | 1300 nM | 494 nM | 1440 nM
UUUUAUUCGUACUUCUAGUGAUGUUAGAUUCGAGGACCGGUACGGCCGCCACUCGUUAAGGCGAUUUUAUAUUUUUUAUUCUUUA [JR_SSTryptoA_Sub012] | 182 nM | 165 nM | 179 nM | 165 nM | 138 nM
AAGCAGUCACUCGAACCCAUCGAAGAUGGGCGAGGACCGGUACGGCCGCCACUCGGAGUGAUGUUCCGCAGACUGCAAAAUAAAA | 679 nM | 265 nM | 339 nM | 249 nM | 164 nM
AACGUUUUGUGAAGGAGCGCGAUAAGCAGUGAUGUUGCUUACUUACAAUUUAUAUUUUACACGCAGGUAGGUCGCACAAUACGUA [JR_SSArginiB_Sub017] | 207 nM | 160 nM | 190 nM | 163 nM | 173 nM
GUAUCGCUAGGAGGAUAUUUCAAUUCGCCUAUAAAUGGUGAUACGGAGUGAUGUUCCGAUUUACGGAAAGAAGGCCUAGUGAUAC [FMN B 8] | 146 nM | 275 nM | 283 nM | 298 nM | 282 nM
AUGUAUGAAUUAGGAUAUCGUUAGCCUAUCAUAUAUAUGAUAAAUGGAUAUGUCGUAGUGAUGUUACGAGAAGGAGUGUGGAGUA [KL-XFMN-B7] | 55.8 nM | 62.9 nM | 55.4 nM | 82.7 nM | 39 nM
AAUUCAGUGAUGUUGGAAGGCAGGCGGGAUACCAGCGGAGAAUAACGCCCUUGGCAGCCCAAAUAUCCCAAAUAGAUAAUAGUUC [Same State - Theophylline A (Freestyle 2)] | 474 nM | 353 nM | 481 nM | 475 nM | 450 nM
CGUUUAUAGCAGGAUACCAGUACCCAUAAAGUACGUUAAUAGUAGAGUGAUGUUCUAAAGUACCCUUGGCAGCUUAGAGUGAGUG [ExTheophylB.Q] | 93.5 nM | 159 nM | 117 nM | 137 nM | 76.4 nM
UCACUCAUGUGAAGGAGCGUGAGAAGACAUGAGUGAUGUUCAUGUCUAGACCAGCGUCUCUCACAGGUAGGUCGCACAUGAAAGG [Arg B SS t10] | 128 nM | 105 nM | 121 nM | 100 nM | 121 nM
UUUUUGGAGAAUUAUAGUGAUGUUAUGAAGGAGGAUAUCUGGAGAUGGAGAAGGCCUAGUGGCUCAGCCCUCGCGGGUGGGUGGG [ExFMNA.aD] | 667 nM | 518 nM | 456 nM | 530 nM | 426 nM
GCCGUAGAUUGAAGGAGCGGUAUGGGCGUUGGCUGAGUGAUGUUCAGGGAAAGUGGCUUCUACCAGGUAGGUCGCAAUCUACGGC | 164 nM | 129 nM | 157 nM | 170 nM | 137 nM
